Results on one substance are retold here after paper PMC6675082.

In this experiment the target is NpDps4 (Dps4 from Nostoc punctiforme ATCC 29133) (Nostoc punctiforme ATCC 29133). Briefly: crystal structure; sitting-drop vapour diffusion, 25% SOKALAN HP 66, 0.1 M HEPES pH 7.0, 0.2 M NaOAc, room temperature; metal-free, Fe2+-soaked and Zn2+-soaked crystals; four molecules in the asymmetric unit, a third of the dodecameric hollow sphere.

For “NpDps4 (Dps4 from Nostoc punctiforme ATCC 29133) (natural protein)”, the stoichiometry N (usually the number of molecules, sites or subunits per partner or assembly) stood at 12.
